# Assay results: patent US11912755B2, “Endostatin fragments and variants for use in treating fibrosis” (iBio, Inc., priority 2015, dated 2024)
# Assays:
# [1] = test system: TGF-β-induced dermal fibrosis in mouse skin; assay: In vivo TGF-β-induced dermal fibrosis in mouse skin; conditions: 10 μg/ml intradermal with TGF-β 10 ng/ml; one week
# Method: In Vivo Mouse Experiments. CB57BL6/J male mice were purchased from The Jackson Laboratory (Bar Harbor, ME). Human rE (10 μg/ml) or Endostatin peptides (10 μg/ml) in combination with TGF-β (10 ng/ml), or TGF-β alone were injected intradermally on the back of mice in a total volume of 100 μl 1×PBS. Mice were injected in two different skin sites and sacrificed one week post-injection. Skin surrounding the injection site was harvested and fixed in 10% formalin prior to embedding in paraffin.
# Measurement of Skin Dermal Thickness. Six μm sections of paraffin-embedded human and mouse skin tissues were stained with hematoxylin and eosin (H&E). In some experiments, sections were stained with Masson trichrome which identifies collagens. Images were taken on a Nikon Eclipse 800 microscope. The thickness of the dermis was measured in 6 random fields of each section using the image/J® software. Data are shown in arbitrary units.
# E4, a peptide representing the carboxy terminus of human endostatin, can attenuate fibrosis triggered by multiple fibrogenic factors. The anti-fibrotic effects of E4 can be detected whether administered concomitantly with or following the fibrogenic trigger. The efficacy of E4 was confirmed in […] pre-clinical models of fibrosis: a) bleomycin-induced dermal fibrosis in vivo in mouse skin, b) TGF-β induced dermal fibrosis in mouse skin, and c) bleomycin-induced pulmonary fibrosis. E4 peptide or a control peptide (E1; representing the amino terminal region of endostatin) were administered at the same time as TGF-β or bleomycin or 3-4 days following TGF-β or bleomycin. Mice were sacrificed one and two weeks after TGF-β-initiation of dermal fibrosis, and two and three weeks after bleomycin-induced pulmonary fibrosis. Two different modes of administration of the E4 peptide were also tested. It was confirmed that intraperitoneal and intratracheal administration was effective. The amount of E4 that was administered was 10 μg/ml in a total volume of 100 μl for skin and IP injections and 50 μl for IT administration.
# For these studies, fibrosis was assessed by measurement of dermal thickness on H&E skin sections (skin), assessment of collagen levels by Masson Trichrome staining (skin and lung), and measurement of collagen levels by Sircol assay (lung). Furthermore, to confirm the mechanism by which E4 exerts its anti-fibrotic effects, the production of extra-cellular matrix (ECM) components, the levels of enzymes that promote matrix stabilization and thus accumulation and levels of those that degrade ECM components, and levels of transcription factors downstream of the pro-fibrotic triggers were evaluated. Results were assessed using the unpaired t test and the 3-way ANOVA (for the ID1 data).
# [2] = test system: human primary lung fibroblasts; assay: Western blot of FN, Col1α1 and α-SMA in primary lung fibroblasts; type: cell-based; conditions: normal human lung fibroblasts; TGF-β 24 h, then 5 μg/ml for 48 h
# Method: Primary Fibroblast Culture. Human primary lung and skin fibroblasts were cultured. The explanted lungs of normal organ donors, patients with SSc or IPF, and clinically involved skin of SSc patients, a morphea patient and healthy donors were used for primary fibroblast culture. Approximately 2-cm pieces of peripheral lung and skin were minced and fibroblasts were cultured in Dulbecco's modified Eagle's medium (DMEM; Mediatech, Herndon, Va.) supplemented with 10% FBS, penicillin, streptomycin, and anti-mycotic agent, as previously described (Feghali et al., Arthritis Rheum 1999; 42:1451-7). All the cells were used between passages 3-6.
# Western Blot Analysis. Cellular lysates were obtained from cultured fibroblasts as previously described (Pilewski et al., Am J Pathol 2005; 166:399-407). Briefly, 2.0×10^5 primary fibroblasts were cultured in 35-mm wells in 0.5% FBS-containing medium supplemented with 10 ng/ml of human recombinant TGF-β or PBS as vehicle control for 24 h, […] In some experiments, endostatin peptides were used without TGF-β stimulation. Cellular lysates were analyzed by Western blot. Signals were detected following incubation with horseradish peroxidase-conjugated secondary antibody and chemiluminescence (Perkin Elmer Life Sciences, Inc., Boston, Mass.). The intensity of individual bands with expected molecular sizes was semi-quantitatively analyzed using the image/J® software available at on the Internet (/rsb.info.nih.gov/ij/index.html), and normalized to individual GAPDH intensity.
# [3] = Solubility of Ig Fc fusions to E3 in plant lysates; type: physicochemical; conditions: plant lysate, non-denaturing (normal) grind buffer
# Excerpt: For IgG Fc expression, clarified plant lysates were run on a Western blot (Genway chicken E3 antibody). Fusions included E3 (C67A) linked to either the N-terminus of the hinge+Fc domains of IgG2, IgG3, or IgG4, or to the C-terminus of the hinge +Fc domain of IgG1. […] The E3-IgG1 fusion expressed well. The non-reducing samples all appeared to form large structures, although perhaps not as large as the END-55 (iBioCFB03) BMW multimers (FIG. 24).
# For IgA/M expression, clarified plant lysates were ground in either denaturing (total) or non-denaturing buffer (soluble) and run on a Western blot (Genway chicken E3 antibody). Fusions contained E3 (C67A) linked to the N-terminus of the hinge+Fc domains of IgA1, IgA2, or IgM. The IgA1 and IgA2 fusions were insoluble in normal grind buffer. The IgM fusion had very low expression. J-chain co-expression had no obvious effect.
# [4] = test system: bleomycin-induced pulmonary fibrosis; assay: Bleomycin mouse model of pulmonary fibrosis, plant-made E3 variants oral or IV; type: in vivo; conditions: oral treatment
# Excerpt: Peptides were expressed in plants using the IBIOLAUNCH™ gene expression platform. C57BL/6 mice were given bleomycin intratracheally in conjunction with END-55 (also referred to herein as E3-Fc (C67A) and CFB03) intravenous (IV) administration, or followed by IV administration of END-55 eight days after bleomycin. The mice were sacrificed at day 12 and lung samples were taken for both hematoxylin and eosin (H&E) staining and hydroxyproline assay.
# Pulmonary fibrosis was induced in mice using bleomycin. Animals were treated orally with E3 variants or phosphate buffered saline (PBS). Lung histology was examined, showing that orally delivered E3 variants (E3-6His-KDEL (SEQ ID NO:19) and Expanded E3-6His-KDEL(SEQ ID NO:19)) prevented bleomycin-induced pulmonary fibrosis.
# For the experiments shown in FIGS. 21 and 22, pulmonary fibrosis was again induced in mice using bleomycin. […] Hydroxyproline content was measured in the lung.
# To evaluate tissue fibrosis/collagen deposition, a hydroxyproline quantification assay was performed. […] Aliquots were transferred to 96-well plates, and absorbance was measured at 570 nm. Collagen content was calculated by comparison with a standard curve generated with cis-4 hydroxy-L-proline (Sigma-Aldrich), using the conversion factor of 1 μg hydroxyproline corresponding to 6.94 μg. […]
molecule,measurement,setting,value
"E1: synthetic peptide, amino acids 1-45 of SEQ ID NO: 2 (human endostatin) (HSHRDFQPVLHLVALNSPLSGGMRGIRGADFQCFQQARAVGLAGT; listed as Homo sapiens)",TGF-β-induced dermal fibrosis (dermal thickness),[1],did not alter
same,FN and Col1α1 levels,[2],no effect
"E2: synthetic peptide, amino acids 71-115 of SEQ ID NO: 2 (IVNLKDELLFPSWEALFSGSEGPLKPGARIFSFNGKDVLTHPTWP; listed as Homo sapiens)",TGF-β-induced dermal fibrosis (dermal thickness),[1],significantly reduced
"IgG1_Fc-E3_C67A: SEQ ID NO: 29, C-terminal fusion of E3 C67A to IgG1 Fc",solubility,[3],soluble
"E3-6His-KDEL: SEQ ID NO:15; secretory leader peptide, E3, tagged with 6X His and KDEL sequence; plant-made (protein, amino acid sequence including a secretory sequence, a portion of human endostatin, and a peptide tag, plant-made) MGKMASLFATFLVVLVSLSLASESSASYCETWRTEAPSATGQASSLLGGRLLGQSAASCHHAYIVLCIENSFMTHHHHHHKDEL","bleomycin-induced pulmonary fibrosis, lung histology",[4],prevented
"E3_C67A-Fc_IgA2: SEQ ID NO: 26 (protein, E3_C67A-Fc_IgA2 fusion) MGKMASLFATFLVVLVSLSLASESSASYCETWRTEAPSATGQASSLLGGRLLGQSAASCHHAYIVLAIENSFMTVPCPVPPPPPCCHPRLSLHRPALEDLLLGSEANLTCTLTGLRDASGATFTWTPSSGKSAVQGPPERDLCGCYSVSSVLPGCAQPWNHGETFTCTAAHPELKTPLTANITKSGNTFRPEVHLLPPPSEELALNELVTLTCLARGFSPKDVLVRWLQGSQELPREKYLTWASRQEPSQGTTTFAVTSILRVAAEDWKKGDTFSCMVGHEALPLAFTQKTIDRMAGKPTHVNVSVVMAEVDGTCY",solubility,[3],insoluble
"Expanded E3-6His-KDEL: SEQ ID NO:17; E3 extended by 17 amino acids from Collagen XVIII, S→Y, C67A, ASK, 6X His KDEL (protein, amino acid sequence including a secretory sequence, a portion of collagen XVIII, a portion of human endostatin having a C67A mutation, and a peptide tag, E3 extended by 17 amino acids from Collagen XVIII, S→Y, C67A, ASK, 6X His KDEL) MGKMASLFATFLVVLVSLSLASESSAQKSVWHGSDPNGRRLTESYCETWRTEAPSATGQAYSLLGGRLLGQSAASCHHAYIVLAIENSFMTASKHHHHHHKDEL","bleomycin-induced pulmonary fibrosis, lung histology",[4],prevented
"E3_C67A-Fc_IgG3: SEQ ID NO: 23 (protein, E3_C67A-Fc_IgG3 fusion) MGKMASLFATFLVVLVSLSLASESSASYCETWRTEAPSATGQASSLLGGRLLGQSAASCHHAYIVLAIENSFMTELKTPLGDTTHTCPRCPEPKSCDTPPPCPRCPEPKSCDTPPPCPRCPEPKSCDTPPPCPRCPAPELLGGPSVFLFPPKPKDTLMISRTPEVTCVVVDVSHEDPEVQFKWYVDGVEVHNAKTKPREEQYNSTFRVVSVLTVLHQDWLNGKEYKCKVSNKALPAPIEKTISKTKGQPREPQVYTLPPSREEMTKNQVSLTCLVKGFYPSDIAVEWESSGQPENNYNTTPPMLDSDGSFFLYSKLTVDKSRWQQGNIFSCSVMHEALHNRFTQKSLSLSPGK",solubility,[3],soluble
"E3_C67A-Fc_IgA1: SEQ ID NO: 25 (protein, E3_C67A-Fc_IgA1 fusion) MGKMASLFATFLVVLVSLSLASESSASYCETWRTEAPSATGQASSLLGGRLLGQSAASCHHAYIVLAIENSFMTVPCPVPSTPPTPSPSTPPTPSPSCCHPRLSLHRPALEDLLLGSEANLTCTLTGLRDASGVTFTWTPSSGKSAVQGPPERDLCGCYSVSSVLPGCAEPWNHGKTFTCTAAYPESKTPLTATLSKSGNTFRPEVHLLPPPSEELALNELVTLTCLARGFSPKDVLVRWLQGSQELPREKYLTWASRQEPSQGTTTFAVTSILRVAAEDWKKGDTFSCMVGHEALPLAFTQKTIDRLAGKPTHVNVSVVMAEVDGTCY",solubility,[3],insoluble
